Assay: soluble on expression in E. coli; label from the status in PepcDB or PDB records

Sequence | soluble on expression in E. coli
PAGHADDAMHSYFTFVAPDRGLAKVAAAQAAALRPFLAGTPLADLPLLSSVSPLKAGGRAGPDHYTDVPAGPLSMRHVADLHMFPNELRALVLTGADLREWLEMAAGVFLSPAPAGACDMLLDTSVPGHNFDSLYGLTYEIDPRAPPRYDIGGRLIADENRRIGSLCHNGTPVDDRQKFVVALNNYRANGGGHFLMLDRGEPVPLPSLRIQSALHDYLSGRLPADPLEQAPHPWRLAPL | not soluble
GQSMTQQLRVLKSGVDIVVGTPGRVIDHLERKSLNLEHIAYFVLDEADEMLNMGFIDDIKEILKSTGPNKRMLFFSATMPKAILGIVKKHMQNYEHITIEKEELTETLTEQIYFEVKESDKFEALCRIIDIEDEFYGLVFCRTKTDTSQLAQKLSDRGYLADALHGDLSQQEREKILNKFRKQKINILAATDVAARGIDIMDLTHVINYALPQDPESYVHRIGRTGRAGKQGTAITFVTSTEFRRLTYIKKTSKSEMKKGHIPEIKDVIKAKRARVRTELEETIKTEEYGDCLEMSQKLLEEYPAEKILAALLKFTFKDKFDESMYTEISSGSSYVDRKGKSRLFIAMGKADGMTPDKLSYFIQEELGDGELKVRDAEIFPHFSFVTLPFAQAETLIEIFKNKRRGSKPFVELAQKSRGRSSKDSGETRSDNRGTSRGNSRNGESRGDSRGESRGTKSTNYSRSTRSTRSTKK | not soluble
MAKSTVRYVCSACGAVSLKYQGRCFECQSWGTLVETHLEEPDAKVRKKRPAGSMPEVQNLDDDAPSGFHRTLTGIGELDRVLGGGLMEASAILVGGEPGIGKSTLMLQLVPRLAGKKVLYVAGEESPNQIRERARRLSIKAPNLRLVSEVALERILDAIANEQPEMVIVDSIQTVYSSDYQSSAGTITQIRECAASLIRAAKEQNFILLIIGHITKEGSLAGPKALEHMVDTVVQFEGENYQRYRIIRSVKNRFGPTNEIGVFKMGEEGLTEVSNPSEFFISDRRTDVPGTAVLAGIEGSRALMVEVQALVSRTGYSMPQRISTGFDLKRIAIILAVLEKRLQFQTAGQDVFVKIAGGLKLVEPAADLAIAAAVASGLQDKPCNPTACCCGEIGLSGELRAISDGERRIREAVHLGFTSIVLPESNTRELKPSLKKLPIRIAGCRTLHEALEAMGV | not soluble
MGSDKIHHHHHHMNKFNDIIDECDLSFSDWGKNYPRWSSLDAAWWKTFGGDNYLNKYKDGYIVFHREKIKEIARQYKIPSILLASVAHAEAGGMVDYFKYPTLFGRQVVHSYSGWPGKEKILPSPEKTSIGIIAMQIRVVAEIFGKNPSALRNAEATYISICLNKDNFNLTMVARHLYELINYDYPGTDTLNLTDEQFILAGARYNRGVQRSRSDLIRSINAEKDLIEVRDWTSYGRSMLNHREKITKLLYEVTTPPKNSDSN | not soluble
MVEKMNEEVMDSKELQVGDVVTGSVTKVEEKQVLVNVGYKTDGVIPISELANVHIEKASDVVELDQTLELKIIKLEEDDLVLSKRAVDAEKAWVELQEKFTSGHVFDVIVKDIVNGGLVVDLGVRGFIPASLVEVHYVEDFTDYKGKTLAVKIVELDREKNRVILSHKAVVELELDSKKKEAISSLKEGDVVEGTVQRLTDFGAFVNVGGVDGLVHISQISHERVEQPSEVLEQGQKVKVKVLSVDADTQRISLSIKAAQPGPWENVAGEIKAGDIREGVVKRLVTFGAFVEILPGVEGLVHVSQIANRHVKNPNEVLEMGQEVKVKVLEVHVAEKRISLSIKEALEENNVTEDYSQYEPNADSATFQLSDIIGEQLKKLKKLEHHHHHH | soluble
MSLGIKVVLLEKAHEIGEIGAGIQLGPNAFSALDSLGVGEVARQRAVFTDHITMMDAVNAEEVVCIETGQAFRDHFGGPYAVIHRVDIHASVWEAVLTHPDVEYHTSTNVVDIRETEDDVTVFDDRGNSWTGDILIGCDGVKSVVRQSLLGDAPRVTGHVVYRAVIDRADMPEDLRINAPVLWAGPHCHLVHYPLRGGKQYNLVVTFHSRQQEEWGVKDGSKEEVLSYFEGIHPRPRQMLDKPTSWRRWSTADREPVAKWGTKRITLVGDSAHPVAQYMAQGACMALEDAVTLGKALAQCEGDAAQAFALYESVRIPRTARIVWSTREMGRVYHAAGVERQVRNLLWKGKSQAEFYRGMEWLYGWKEDNCLQPREGHHHHHH | not soluble
MILKPIGVVKSPFKTQNDAPRQGRFSDAVSEIAIFDEYADGLHKIENLRHIIVLYWMDKASRDKLRVVPPGETEERGVFTTRSPSRPNPIGLCVVEILEVERNRLKVRWLDALDGSPVIDIKKYSPEIDCVNQLEGQQP | not soluble
MSEVQQLPIRAVGEYVILVSEPAQAGDEEVTESGLIIGKRVQGEVPELCVVHSVGPDVPEGFCEVGDLTSLPVGQIRNVPHPFVALGLKQPKEIKQKFVTCHYKAIPCLYK | soluble
MSLKGENMRVAGLKTDKQGVIFDMDGLLVNSEELYWQANIQAAREYKLGISDDAYLDLVGASVKAMDAFYEKYFPSDEVRQAFVKRTDDLVWEWTDQGKLKLKAGVKEALEYFNDLGLTVGIASNNYKSVVDHNLWVTGCRNSFDFIVTHDEVAEKKLRSKPFPDLYLAAQERSGLGKDQLLIFEDSSMGVEAAENAGIDCVMIPDIKPASAEDRARAQLICPDFFDFLKKISEGHHHHHH | soluble
SLRITLEFTGEKNLILPIHYNYIVQGLLYDLMGDTDFAAFLHDVGFQYEKRRFKLFTFSRIEGEFQIVEKPNGQKKIIIKPPFKFTVASPLEEVIIDISKNILKREYCHFNGQKFTLNSLNIENPPIFKEKARIKFISPVVMYTTLRNGEKKYTYYYSPWDEKFSPLLLNNLVKKYELVYKIKPKNPHFKLIPLTEKEDRRYSKVIKYKNVYVKGWMGIYDVETTPELLELAYYTGLGAKNSQGFGCFEIIG | not soluble
MKVYSKDDIVEQAKELAKMISETEEVDFFKKAEAQIHKNENVKRAIDEIKALQKQAVNLQHYGKWEALKKVEAEIDALQDKLDSIPVVQQFKSSQTYVNDLLQLVASTISNNVTDEILISTGGDVLKGETGAAVESKKGNCGC | not soluble
MGHHHHHHSHMKQTAESIRDRFMKLGIDVPVEDIESRLDELIKKFKVPSNEAQRSVTNYFLKKYSIPKNEFYVRQAEPQLTKIVDIVENGQWANLKAKVIQLWENTHESISQVGLLGDETGIIKFTIWKNAELPLLEQGESYLLRSVVVGEYNDRFQVQVNKNSSIEKLSEPIEVGGGDFTPAAREAELRNIADLTGNQWATVRGKVIQLWENSHESIEQAGLIGDETGVIKFTNWASSELPDMEEGRSYLLKNVVVNEWNGKAQVQLNRSSSIEELDEDIEVRTSMSSYFGAMVDIQTGSGLIKRCPECKRALVKGACAEHGKVKGEYDLRIKAVLDSGTSTQDALINRELTEELSGISLDSAIAMAADALDPGVVLDKLKHELVGRYYTITGHKLDRYILVESITPRTSLDRELLDQMLAEPIAQPEVE | soluble
MKSEPDTFSIDDLERVGTEPWNGVRNYQARNFMRDGMHVGDGVFFYHSNCKVPGIVGIAKVASAAYPDDTQFDPSSDYHDPKSTREDPRWMLVDVAFERKLTRTISLDEIKQQADALGEGFPLIARGNRLSILPVTAAQWKVLLAMELEHHHHHH | not soluble
MAHHHHHHMPSMSASRQAPKVSATARATKFSTIRKLPTAEHSTSPVAAAPTSSEEPSRLALISFDVDATIDTVNLLHEEQHRVSEEDATDKRIGRYHYAQLVARLNEQRSLYQSTAMFVETMLKEVNHSTEASVAMKASAATWGLKLLAKHAGHGAINAVLESLLPALYCEYNPKKLCSAPPAVQLQVRRPDVIMDNPYFTHSMFVDEVQVDKRSATKLQKSLEAALRANDQRRSIVCHLIERRRQQQLEVTFRCWRHHVRQQHLLRMMGDNTAKQRAEEMSRLRVQTVFYHWKLLVERSRSTYLTERLHEAAFQLENAKNQFQLQCYRADRLVKTAKEATEEMERVSQINKGLQRQVDELKEEQVRKEREYKEKLTRNVTQVLKLLETYDSLARVLLHSKQADEYVMPEKPLLARHSQSGDGGQEASENEASRLR | not soluble
MSDQMRIPCVIMRAGTSKGIFLKGNDLPADQELRDKVILRIFGSPDVRQIDGLAGADPLTSKLAIIGPSTHPDADVDYTFAQVSITDAVVDYNGNCGNISAGVGPFAIDESFVKAVEPMTRVCIHNTNTGKLLYAEVEVEDGKAKVSGDCKIDGVPGTNAPELMDFSDTAGAATGKVLPTGNVVDVLSTSKGDIDVSIVDVANPCIFVHAKDVNMTGTETPDVINGNADLLAYLEEIRAKCCVKIGMAATEKEASEKSPAFPMIAFVTKPEDYVDFSTGNTISGDDVDLVSRLMFMQVLHKTYAGTATACTGSAARIPGTIVNQVLRDTGDEDTVRIGHPAGVIPVVSIVKDGKVEKAALIRTARRIMEGYVYVEKAKLVGSAWSHPQFEK | soluble
MSLAIQLGKDYTMLSTPQPVADPKKVEVIEFFSYHCIHCYDDDPAFNAWSKTLPADVSFRKEQIVWQKSMEGFARMFATFNATGTFDKLHRAAFDAQIKQRVDLSKPEQFTGWIKQQKGVDSAKLLQTYNSFGINAQVARATKITRDYQIQGTPTVIVNGKYVVVTATPERMIQVMNELVAKAREGHHHHHH | soluble
MSRVVLNVDSYEGNDTPSAEIARFVVLYGKASTRKHKIWEGDGLLVCFTDSCLLKSEDERDVICRSSALKGLDQLEDGRIINIGSWSVEIQERIATGPPQKPISAQKPEIQSPMPPMTPGNSENVENRKRGGFSSPFLGIELPKPLSKRSATFVPPLIGSESSSSGGSSSSTIQEKIPPFILNEQDILDRKTTSAVTVDTRFARHLRPHQKSGIQFIFDRLRRGSGKNGGGGGAILADDMGLGKSLQTMAATWALLKGSKTAQQLANSCLIIVPSSLVNNWKAEFDKWWRLMRFPAVIALTANDITTYQSTIKLMPYLVISYDLAQRHVEKLKIIRFDVMVCDEGHKLKNLDGKLRKTLLSLEIPRRLILTGTPMQNDFEEFYSLLDFVRPSVFGSIVEFRKMCSDRPEQLNELIDECMLRRTAADVDLKHLPEKHEYILFCAASPIQKHVHSEICDYMTGDALSLIFFARQLANHPKLLLDNLREKTEKSKAHKHSPLLLAFDGAHMPRGGVKESGKLTALVDMIKCFRLLQECTVIVSNYIETLDMIQQLCEYLNFKVLRLDGKTQVPDRQKLVRTFNDHRDPSNIFLLSTKAGGVGLNLIGASRLVLFDSDWNPANDQQAMARIWRDGQVRPCHIYRLITTGTIEEKMLQRQIKKTGLGCVIDAIEVGDTIATFTDEDLKDIFTFTGSATECNTHDLCECPCDGCGMLENEMDEEDDGDDVVENDAEKIDKSGKIDKIDSDDDEEADDEELEADVTDEVVEDSQEPPEATKPAVAAAGLRTIASLAELSRWRHFSPRHADTWHHFMTNAGLSQVDTDVELTFAFYQESQY | not soluble
MGSDKIHHHHHHMTLKVTLCDDSKMARKQLLRTLPDDWDAEVHQAEHGEQALTCLREGRAEVLFLDLNMPVKDGYETLQAIKEEQLETLVIVVSGDIQPEAQKRVQALGAMAFVKKPMKPEDIQTLLQQFGLYQPAAGQLKLADETPQAPANPLDVYREVSNVAMGQAGDHLARVLDTFIELPVPNVNFIAPSELHMAIESIDTNKQVAAVSQGFSGSGILGEALTLFNDASIDDIGKLLGAKLGESGSIKQQRIESLMDVASILSSACLNGLGQQLHVEFAASQPVLLGEHQSMRELIKHGEHRWQKILAIEIGYQLPEHKLAFDLLLLFPADAVKILDQQLAHWLQGDDE | not soluble

Reference: the DeepSol protein solubility set
